# According to PMC6286129, “CryoEM structures of open dimers of gyrase A in complex with DNA illuminate mechanism of strand passage” (eLife, 2018):
# Tests used:
# [1] = molecular target: the molecule itself; assay: cryo-EM structure; Tetrahedral complex: GyrA-ΔCTD mixed with GyrB, 44 bp DNA, ciprofloxacin and novobiocin; purified on a glycerol/glutaraldehyde gradient (GraFix)
# [2] = molecular target: the molecule itself; assay: cryo-EM structure; Dihedral complex: GyrA-ΔCTD mixed with 44 bp DNA and ciprofloxacin, no GyrB; purified on a glycerol/glutaraldehyde gradient (GraFix); also a low resolution reconstruction without glutaraldehyde or antibiotics
protein,measurement,setting,value
"Streptococcus pneumoniae gyrase A subunit with truncated C-terminal domain (GyrA-ΔCTD, residues 1–487) (domain or fragment, UniProt P72524 1-487, looked up, DNA gyrase subunit A, Streptococcus pneumoniae, gene cloned from the ATCC genome 700669DQ; residues 1-487 (C-terminal domain removed); The vector pMCSG7 adds 24 amino acids at the N-terminus, with a six amino acid His-tag and a TEV cleavage site; It forms open dimers that assemble around a 44 bp DNA into oligomers of four dimers (Dihedral complex) or six dimers (Tetrahedral complex); also called …) MQDKNLVNVNLTKEMKASFIDYAMSVIVARALPDVRDGLKPVHRRILYGMNELGVTPDKPHKKSARITGDVMGKYHPHGDSSIYEAMVRMAQWWSYRYMLVDGHGNFGSMDGDSAAAQRYTEARMSKIALEMLRDINKNTVDFVDNYDANEREPLVLPARFPNLLVNGATGIAVGMATNIPPHNLGETIDAVKLVMDNPEVTTKDLMEVLPGPDFPTGALVMGKSGIHKAYETGKGSIVLRSRTEIETTKTGRERIVVTEFPYMVNKTKVHEHIVRLVQEKRIEGITAVRDESNREGVRFVIEVKRDASANVILNNLFKMTQMQTNFGFNMLAIQNGIPKILSLRQILDAYIEHQKEVVVRRTRFDKEKAEARAHILEGLLIALDHIDEVIRIIRASETDAEAQAELMSKFKLSERQSQAILDMRLRRLTGLERDKIQSEYDDLLALIADLADILAKPERVSQIIKDELDEVKRKFSDKRRTELMIG",stoichiometry N,[1],12 monomers
same,stoichiometry N,[2],8 monomers
